Measured values reported in paper PMC6086891, “Adenosine Kinase couples sensing of cellular potassium depletion to purine metabolism” (Scientific Reports, 2018).

Substrate: Nc1ncnc2c1ncn2[C@@H]1O[C@H](COP(=O)(O)OP(=O)(O)OP(=O)(O)O)[C@@H](O)[C@H]1O
Test: purified protein
Format: biochemical, Mus musculus
Details: Mg2+ BS1 (ATP site); adenosine competes with ATP

B1: Adenosine Kinase (mADK) (Mus musculus) (protein)
chain: MAAADEPKPKKLKVEAPQALSENVLFGMGNPLLDISAVVDKDFLDKYSLKPNDQILAEDKHKELFDELVKKFKVEYHAGGSTQNSMKVAQWLIQEPHKAATFFGCIGIDKFGEILKRKAADAHVDAHYYEQNEQPTGTCAACITGGNRSLVANLAAANCYKKEKHLDLERNWVLVEKARVYYIAGFFLTVSPESVLKVARYAAENNRVFTLNLSAPFISQFFKEALMDVMPYVDILFGNETEAATFAREQGFETKDIKEIAKKAQALPKVNSKRQRTVIFTQGRDDTIVAAENDVTAFPVLDQNQEEIIDTNGAGDAFVGGFLSQLVSDKPLTECIRAGHYAASVIIRRTGCTFPEKPDFH
Km: 2.1 µM
